The source of these data is patent publication US20150246949A1, “Desmoglein 2 (DSG2) Binding Proteins and Uses Therefor” (UNIVERSITY OF WASHINGTON THROUGH ITS CENTER FOR …, priority 2012, published 2015).

Assay [1] concerns the target human DSG2 on cells (HeLa cells; polarized T84 cells) (human) (UniProt Q14126). Nature of the assay: attachment of 3H-labelled Ad3 virus (competitor) to HeLa cells pre-incubated with the dimeric knob.
Assay [2] shares this target. Nature of the assay: cell-based or functional assay.
The target in a further assay is T1, DSG2 (Homo sapiens, UniProt Q14126).
T1 construct: purchased Leinco Technologies, Inc. (St. Louis, Mo.)
T1 sequence (Q14126 50-609 limits assumed): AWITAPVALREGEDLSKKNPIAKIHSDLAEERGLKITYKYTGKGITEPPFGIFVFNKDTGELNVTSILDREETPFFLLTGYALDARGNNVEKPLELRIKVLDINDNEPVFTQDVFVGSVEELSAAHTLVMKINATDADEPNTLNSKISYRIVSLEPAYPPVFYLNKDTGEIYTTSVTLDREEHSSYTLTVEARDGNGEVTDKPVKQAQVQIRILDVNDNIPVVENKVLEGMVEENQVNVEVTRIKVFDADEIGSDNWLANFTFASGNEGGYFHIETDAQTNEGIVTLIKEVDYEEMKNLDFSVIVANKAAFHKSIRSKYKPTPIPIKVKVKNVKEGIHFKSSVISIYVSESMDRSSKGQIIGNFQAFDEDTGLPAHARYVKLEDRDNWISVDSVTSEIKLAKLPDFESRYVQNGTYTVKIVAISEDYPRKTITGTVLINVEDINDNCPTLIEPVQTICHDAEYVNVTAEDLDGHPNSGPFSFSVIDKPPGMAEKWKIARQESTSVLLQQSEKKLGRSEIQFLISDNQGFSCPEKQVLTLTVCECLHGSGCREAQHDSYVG
In words: Surface plasmon resonance of non-dimerized Ad3 fiber knobs on immobilized DSG2. Conditions: knobs without dimerization domain. Type of assay: binding. The procedure: FIG. 7. SPR analysis of non-dimerized Ad3 fiber knob interactions with DSG2. A) DSG2 was immobilized on sensorchips, and background was automatically subtracted from the control flow cell. The Ad3 fiber knobs (w/o dimerization domain: “noDD”) were injected for 3 minutes at 2.5 μg/ml followed by a 2.5 minutes dissociation period. B) Summary of SPR data. […] The extracted data are resumed in the table. Wt=Ad3 fiber knob without mutations
Acquisitions were done on a BIAcore 3000 instrument. HBS-N (GE-Healthcare, Pittsburgh, Pa.) supplemented with 2 mM CaCl2 was used as running buffer in all experiments at a flow rate of 5 μl/min Immobilization on CM4 sensorchip (BIAcore) was performed using DSG2 at 10 μg/ml diluted in 10 mM Acetate buffer pH 4.5 injected for 10 minutes on ethyl(dimethylaminopropyl) carbodiimide (EDC)/N-Hydroxysuccinimide (NHS) activated flow-cell. A control flow-cell was activated by (EDC/NHS) and inactivated by ethanolamine Different concentrations of Ad3 fiber knob proteins were injected for 3 minutes association followed by 2.5 minutes dissociation time, and the signal was automatically subtracted from the background of the ethanolamine deactivated EDC-NHS flow cell. Kinetic and affinity constants were calculated using the BIAeval software.
Background: In SPR one partner is held on a chip, and binding of the other changes the refractive index at the surface.

Another assay relates to Ad3-GFP virus. In words: Competition of Ad3-GFP virus infection on HeLa cells. Conditions: HeLa cells; concentrations up to 200 ug/ml. Type of assay: cell-based, adenovirus serotype 3 (Ad3). Here is the method:
(§1) FIG. 3. Competition of Ad3 virus by dimerized Ad3 knob mutants. A) Relative attachment of ^3H-labeled Ad3 virus in the presence of dimeric fiber knob mutants. 1.8×10^5 HeLa cells were incubated with Ad3 knob mutants at a concentration of 2.5 and 100 μg/ml on ice for 1 hour. Then 400 pfu/cell of ^3H-Ad3 virus was added on ice for another hour. Unbound virus particles were washed away. Attachment of virus particles incubated with PBS was taken as 100%. N=3. B) Competition of Ad3-GFP virus infection on HeLa cells. 1.5×10^5 HeLa cells were seeded into 24 well plates. Cells were incubated with the Ad3 knob mutants at increasing concentrations for one hour at room temperature. 100 pfu/cell of Ad3-GFP virus were then added and GFP expression was analyzed 18 hours later by flow cytometry. Left panel: percentage of GFP positive cells. Right panel: mean fluorescence intensity. N=3. The standard deviation was less than 10%. C) Relative attachment of ^3H-labeled Ad3 virus in the presence of dimeric fiber knob mutants with multiple mutations. The study was performed as described in B) The standard deviation was less than 10%. D) Competition of Ad3-GFP virus infection on HeLa cells. The study was performed as described in C) The standard deviation was less than 10%.
FIG. 9. Analysis of dimeric Ad3 fiber knob mutants with increased affinity to DSG2. A) Competition of Ad3-GFP virus infection on HeLa cells with dimeric affinity-enhanced mutant Y250F and JO-1 (dimeric wt Ad3 fiber knob). The experimental setting is as described for FIG. 3C. left panel: percentage of GFP positive cells. Right panel: mean fluorescence intensity. N=3. The standard deviation was less than 10%. […] 100 pfu/cell of Ad3GFP virus were then added and GFP expression was analyzed 18 hours later. […]
Competition studies were performed on HeLa cells, which express DSG2 (42). […] Transduction was measured based on GFP expression (FIG. 3B). […] Dimeric Ad3 knob mutants with combined mutations were also analyzed for their ability to compete with Ad3 virus for attachment (FIG. 3C) and infection (FIG. 3D).

The next assay deals with 3H-labeled Ad3 virus. In words: Competition of 3H-labeled Ad3 virus attachment to HeLa cells. The assay is classed as cell-based, adenovirus serotype 3 (Ad3). The procedure: as §1, with “The study was performed as described in B) The standard deviation was less than 10%. D) Competition of Ad3-GFP virus infection on HeLa cells. The study was performed as described in C) The standard deviation was less than 10%.” left out
HeLa cells were detached from culture dishes by incubation with Versene and washed with PBS. […] After the last wash, the supernatant was removed and the cell-associated radioactivity was determined by a scintillation counter. The number of VP bound per cell was calculated by using the virion specific radioactivity and the number of cells.

Another assay concerns the target T2, soluble recombinant DSG2 (Homo sapiens, UniProt Q14126).
T2 construct: purchased Leinco Technologies, Inc. (St. Louis, Mo.)
T2 sequence (Q14126 50-609 limits assumed): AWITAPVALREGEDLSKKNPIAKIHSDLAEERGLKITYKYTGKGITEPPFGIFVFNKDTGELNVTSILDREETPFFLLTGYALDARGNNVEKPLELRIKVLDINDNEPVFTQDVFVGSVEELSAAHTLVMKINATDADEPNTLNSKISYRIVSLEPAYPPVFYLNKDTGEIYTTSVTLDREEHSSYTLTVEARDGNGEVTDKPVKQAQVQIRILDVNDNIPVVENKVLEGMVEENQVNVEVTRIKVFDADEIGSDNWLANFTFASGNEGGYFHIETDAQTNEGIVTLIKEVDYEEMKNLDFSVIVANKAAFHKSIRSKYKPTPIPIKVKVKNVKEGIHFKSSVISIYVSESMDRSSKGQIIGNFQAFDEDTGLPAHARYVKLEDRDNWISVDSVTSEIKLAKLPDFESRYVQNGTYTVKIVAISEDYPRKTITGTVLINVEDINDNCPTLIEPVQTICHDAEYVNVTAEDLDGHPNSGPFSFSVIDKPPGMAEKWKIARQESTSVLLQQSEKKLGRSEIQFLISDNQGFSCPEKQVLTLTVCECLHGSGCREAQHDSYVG
In words: Western blot of dimeric Ad3 fiber knob mutants probed with soluble DSG2. The assay is classed as binding. The settings on record: purified dimerized knob mutants. The source says: FIG. 1. Residues found to be critically involved in binding to DSG2. A) Shown are the amino acid sequences of the Ad3 and Ad14p1 fiber knob. Beta sheets present in the Ad3 knob (PDB accession number 1H7Z_A) and Ad14 knob (PDB: 3F0Y_A) are indicated by lines. Black arrows indicate residues within the Ad3 fiber knob which, when mutated individually, ablate or reduce binding to DSG2. […] B) Schematic structure of dimeric Ad3 fiber knob mutants. The fiber knob domain and one shaft motif was fused through a flexible linker to a homodimerizing K-coil domain (41). The proteins are self-dimerizing and can be purified by His-Ni-NTA affinity chromatography. C-F) Analysis of binding of dimeric Ad3 fiber knob mutants to soluble DSG2. C and D) Coomassie staining. 10 μg of purified Ad3 fiber knob (unboiled) were loaded per lane. Trimeric forms of the fiber knobs are indicated by an arrow. The gel contained SDS and the loading buffer containing DTT, which caused the disassembly of dimers of trimeric fiber knobs as previously reported (41). E and F): Western blot using soluble recombinant DSG2 as a probe, followed by anti-DSG2-mAb and anti-mouse IgG-HRP. For comparison, JO-1 (0.5 μg/lane) is shown. The Western blots were scanned and signals were quantified.
Mini-PROTEAN precast gels (BIO-RAD, Hercules, Calif.) with 4-15% gradient polyacrylamide were used. A total of […] protein mixed with 2× loading buffer (10 mM Tris-HCl, pH6.8, 200 mM DTT, 4% SDS, 20% glycerol, 0.2% bromophenol blue) was loaded per lane. Samples were either boiled (B) for 5 min or loaded unboiled (UB). The following running buffer was used: 25 mM Tris, pH8.3, 0.192 M glycine, 0.1% SDS. After electrophoresis, proteins were transferred to nitrocellulose and incubated with recombinant human DSG2 protein and anti-DSG2 antibodies as described previously (42). The Western blots were scanned and quantified using the ImageJ 1.32 software (National Institutes of Health, Bethesda, Md.). JO-1 band intensity was set as 100%. […]

In the case of “dimeric Ad3 fiber knob mutant N186D, D261N, L296R (designed binder)”, the Inhibition of attachment in the presence of dimeric knob (JO-1 = 100%) in assay [1] stood at 18.5%. In assay [2], the Inhibition of infection in the presence of dimeric knob (JO-1 = 100%) amounted to 0%.

B1: N293S/noDD (protein)
chain: NKLCSKLGNGLTFDSSNSIALKNNTLWTGPKPEANCIIEYGKQNPDSKLTLILVKNGGIVNGYVTLMGASDYVNTLFKNKNVSINVELYFDATGHILPDSSSLKTDLELKYKQTADFSARGFMPSTTAYPFVLPNAGTHNENYIFGQCYYKASDGALFPLEVTVMLNKRLPDSRTSYVMTFLWSLSAGLAPETTQATLITSPFTFSYIREDD
modifications: left off: small tags and cut ends
Turning to B1, in the assay with DSG2, the “Association rate to DSG2” value is “association rate was lowest”.

B2: wt Ad3 knob: wild-type trimeric Ad3 fiber knob without the dimerization domain (protein)
chain: NKLCSKLGNGLTFDSSNSIALKNNTLWTGPKPEANCIIEYGKQNPDSKLTLILVKNGGIVNGYVTLMGASDYVNTLFKNKNVSINVELYFDATGHILPDSSSLKTDLELKYKQTADFSARGFMPSTTAYPFVLPNAGTHNENYIFGQCYYKASDGALFPLEVTVMLNKRLPDSRTSYVMTFLWSLNAGLAPETTQATLITSPFTFSYIREDD
modifications: left off: small tags and cut ends
notes: wild-type trimeric Ad3 fiber knob without the dimerization domain
In the case of B2, the “Association rate to DSG2” value in the assay with DSG2 is “slow association rate”.

B3: N186D, D261N, L296R: dimeric Ad3 fiber knob with combination of all three N186D, D261N, and L296R (protein)
chain: MKVSALKEKVSALKEKVSALKEKVSALKEKVSALKEGSGGGSGGGSGGGSNSIALKNNTLWTGPKPEANCIIEYGKQNPDSKLTLILVKNGGIVNGYVTLMGASDYVNTLFKDKNVSINVELYFDATGHILPDSSSLKTDLELKYKQTADFSARGFMPSTTAYPFVLPNAGTHNENYIFGQCYYKASNGALFPLEVTVMLNKRLPDSRTSYVMTFLWSLNAGRAPETTQATLITSPFTFSYIREDD
With B3, in the assay with Ad3-GFP virus, the “Block of Ad3 infection” value is reported as “did not block”. In the assay on 3H-labeled Ad3 virus (Ad3 virus attachment to HeLa cells, N = 3), the “Inhibition of attachment in the presence of dimeric knob (JO-1 = 100%)” value stood at 18.5%. In addition, the “Block of Ad3 binding” value in the assay on 3H-labeled Ad3 virus (HeLa cells, concentrations up to 200 ug/ml) is on record as “did not block”. Further, the “DSG2 binding in Western blot compared to JO-1” value with soluble recombinant DSG2 is listed as “highest level of ablation”.
